Laboratory results from the PETadex activity labels (doi:10.1021/acsomega.4c04843).
Changes are numbered by the printed parent chain.

B1: unnamed (protein)
chain: MLHYKTYTISDDHPWVIFIHGAGGSLSHWYRQLRPFRKKYNVLLVDLRGHGGSYDAEQSLKQPLNAYTFDVVAKDVIEVMDHLGIEKGHMVGLSLGTIVIQAMFEHYPDRIASVVLGGAIVKFNVRSTMLIRLGSLVQNFVPYMWLYKLFAWILLPKKRHKKSRMMFVRDAANLCQREFIRWFKMTENINPLLNQFTSIQTNVPILYIMGDEDYMFLEAVERTAKHQPTANVEIVADSGHVVNVDQPDQFNALSMNFIDDQIQARSLQMS
B2: unnamed (protein)
chain: MFRFHIVSALLTLFIAVPSQAHDVGQREIKISGAEPGRNLEVSVWYPAAIDGKATLIGDNIIFKGAPAVIDATPEKGSFPLLVMSHGSGGRAQGMAWLATELVKAGIIVAAPNHPGTTSGDSTPQDTPKIWQRTGDLSAVIDTMTTDPAWSGIIDKNKISVLGWSLGGAAAMEIAGARANLEAYARYCDTYGKWDCAWYAGGIGYRDDKQIKVDKVDLRSVDKSRFEQSNLDRRIASAIMIDPGLAQAYDAQSLASISIPMSFINLGEVETIPTGVVADKLASITPQGTYVTVAGATHFSFLPECKKGAADRLKSAGEVDPICSDDARRPRADIHADITKLVLKALQSMPKT
B3: unnamed (protein)
chain: B2 chain with W164F, C188A
B4: unnamed (protein)
chain: B2 chain with W164F, A294D
B5: unnamed (protein)
chain: B2 chain with W164F, F299I
B6: unnamed (protein)
chain: B2 chain with W164F, D242A
B7: unnamed (protein)
chain: B2 chain with W164F, L166M

The proteins below were run on pNPB (assay: Proxy for plastic degradation [p-nitrophenol (pNP) release]). Conditions: pH 7.4.

Compared with B1, B2 is higher in “Proxy for plastic degradation” value: 4 U/mL for the first, 5 U/mL for the second.

Compared with B3, B4 is higher in “Proxy for plastic degradation” value: 10 U/mL for the first, 100 U/mL for the second.

First: B5
Second: B6
The “Proxy for plastic degradation” value of the first is higher: 75 U/mL for the first, 20 U/mL for the second.

In the case of B7, the “Proxy for plastic degradation” value is reported as 225 U/mL.

These proteins were tested on PET (assay: Proxy for plastic degradation [Released monomer concentration (HPLC/LC-MS) (TPA)]). Conditions: pH 8.

With B4 the “Proxy for plastic degradation” value was 1 mM/mg.
